Results as given in article PMC6677139.
Positions count from the first letter of the chain named. In names and notes the source's numbering stands.

Tests used:
Test in all cases: purified protein
purified protein [1] = substrate: Nc1nc2nc[nH]c2c(=O)[nH]1; type: biochemical, Escherichia coli; settings: 20 mM HEPES pH 7.5, 100 mM NaCl, 37 °C
purified protein [2] = substrate: Nc1nc(N)nc(O)n1; type: biochemical, Escherichia coli; settings: 20 mM HEPES pH 7.5, 100 mM NaCl, 37 °C, zinc enzyme
purified protein [3] = substrate: Cn1c(N)nc2nc[nH]c2c1=O; type: biochemical, Escherichia coli; settings: 20 mM HEPES pH 7.5, 100 mM NaCl, 37 °C, zinc enzyme
purified protein [4] = substrate: Nc1nc2nn[nH]c2c(=O)[nH]1; type: biochemical, Escherichia coli; settings: 20 mM HEPES pH 7.5, 100 mM NaCl, 37 °C, zinc enzyme
purified protein [5] = substrate: Nc1nc2nc[nH]c2c(=O)[nH]1; type: biochemical, Saccharomyces cerevisiae; settings: 20 mM HEPES pH 7.5, 100 mM NaCl, 37 °C, zinc enzyme

B1: EcGuaD (Escherichia coli K-12) (protein)
chain: MMSGEHTLKAVRGSFIDVTRTIDNPEEIASALRFIEDGLLLIKQGKVEWFGEWENGKHQIPDTIRVRDYRGKLIVPGFVDTHIHYPQSEMVGAYGEQLLEWLNKHTFPTERRYEDLEYAREMSAFFIKQLLRNGTTTALVFGTVHPQSVDALFEAASHINMRMIAGKVMMDRNAPDYLLDTAESSYHQSKELIERWHKNGRLLYAITPRFAPTSSPEQMAMAQRLKEEYPDTWVHTHLCENKDEIAWVKSLYPDHDGYLDVYHQYGLTGKNCVFAHCVHLEEKEWDRLSETKSSIAFCPTSNLYLGSGLFNLKKAWQKKVKVGMGTDIGAGTTFNMLQTLNEAYKVLQLQGYRLSAYEAFYLATLGGAKSLGLDDLIGNFLPGKEADFVVMEPTATPLQQLRYDNSVSLVDKLFVMMTLGDDRSIYRTYVDGRLVYERN
For B1, the Km (purified protein [1]; zinc enzyme) was 210 ± 40 µM, the Km (purified protein [2]) was 1200 ± 200 µM and the Km (purified protein [3]) was 930 ± 260 µM. For the same protein, the Km (purified protein [4]) was 1000 ± 300 µM.

B2: EcGuaD (Escherichia coli K-12; F210A) (protein)
chain: B1 chain with F210A
In the case of B2, the Km (purified protein [1]) is reported as 210 ± 60 µM.

B3: EcGuaD (Escherichia coli K-12; A386S) (protein)
chain: B1 chain with A386S
Work on B3 yielded a Km (purified protein [1]) of 140 ± 30 µM.

B4: EcGuaD (Escherichia coli K-12; W101H) (protein)
chain: B1 chain with W101H
In the case of B4, the Km (purified protein [1]) is reported as 80 ± 10 µM.

B5: Gud1 (Saccharomyces cerevisiae S288C) (protein)
chain: MTKSDLLFDKFNDKHGKFLVFFGTFVDTPKLGELRIREKTSVGVLNGIIRFVNRNSLDPVKDCLDHDSSLSPEDVTVVDIIGKDKTRNNSFYFPGFVDTHNHVSQYPNVGVFGNSTLLDWLEKYTFPIEAALANENIAREVYNKVISKTLSHGTTTVAYYNTIDLKSTKLLAQLSSLLGQRVLVGKVCMDTNGPEYYIEDTKTSFESTVKVVKYIRETICDPLVNPIVTPRFAPSCSRELMQQLSKLVKDENIHVQTHLSENKEEIQWVQDLFPECESYTDVYDKYGLLTEKTVLAHCIHLTDAEARVIKQRRCGISHCPISNSSLTSGECRVRWLLDQGIKVGLGTDVSAGHSCSILTTGRQAFAVSRHLAMRETDHAKLSVSECLFLATMGGAQVLRMDETLGTFDVGKQFDAQMIDTNAPGSNVDMFHWQLKEKDQMQEQEQEQGQDPYKNPPLLTNEDIIAKWFFNGDDRNTTKVWVAGQQVYQI
For B5, the Km (purified protein [5]) was 61 ± 8 µM.
